# From the DeepSol protein solubility set
# Test: soluble on expression in E. coli; label from the status in PepcDB or PDB records
row,Sequence,soluble on expression in E. coli
1,MVVGGFGVGKTTLVRSVSEIRPLSTEETMTRAGETVDDISEVRGKSATTVAFDFGRISLDTRNILYLFGAPGQERFWFLWDRLFAGTLGAVVLVDTRRIDDSWYAIDRLERHGTPFIVACNDFGGPAHTPEQIREALDLDPHVPLIDCDARSRESSKRVLITLVEHLKSLYVPRAPELALLEHHHHHH,not soluble
2,MVVVEQIKSQKIHGCQILETVYKHSCGGLPPVRSALEKILAVCHGVMYKQLSAWMLHGLLLDQHEEFFIKQGPSSGNVSAQPEEDEEDLGIGGLTGKQLRELQDLRLIEEENMLAPSLKQFSLRVEILPSYIPVRVAEKILFVGESVQMFENQNVNLTRKGSILKNQEDTFAAELHRLKQQPLFSLVDFEQVVDRIRSTVAEHLWKLMVEESDLLGQLKIIKDFYLLGRGELFQAFIDTAQHMLKTPPTAVTEHDVNVAFQQSAHKVLLDDDNLLPLLHLTIEYHGKEHKADATQAREGPSRETSPREAPASGWAALGLSYKVQWPLHILFTPAVLEKNRQF,soluble
3,MVYNVLLSLPMMIQARWELLALLLGSGLIKQMDEVIFKEIMACASDQDLAARCSSVMLQISSNSDTCDKTAAIIFKGLTSPVAAVRSNVHRSWLCRIITLKNSQKCVETLLKLCKKSIKTTGNCSKILPISFRELPGLTCVDLQWRAILDEEPGDFSAFCYFSVLLSLKNASSQVHIQIPANDEFVLAELRNSGSLDVLKVCSKYKIYPEPLENWILEHFSPEMMEYIDFSMLKTFSAGFSQVFEEKKLEICQEKLEKFYPAEDLGRLNVHVDLSKEKLANETLEQFLQIQHESEEYPSVAGVMENLSKQNIDERLFCQKICLINDIMHEKYSILKEIRREMYTEFIFKIITRIPLRSVVDYVGATLKTEALQNPDFKNQIYQMSCQLLRLDKENARPLSLYHCFIGTCQQQDTTARISEIWAIIRGLKCDVKKRKMTEMLAKVVTSSEIQIDPSLLSDMTICSLGLHPTRFNTESTQLFVASISKLLDFRNESERIMLFQATANTPTLMDLISSILSRPSTDFSISGFQMILYFFTRFHIGSMEFYPYNHLLIITKIINFCHWSIRKFAKEPMILSISVDAICGFLPWSYLSEIALNGLEVENDPVEQLIAQNLKHNRFCVLLAEHDKQDTYLTIEDFEKLPKSEFIVEILRKKDAGNDSLNDLGQKLREITGKSMNFEEKHANLLACGILFEKSVEIMENAEKSKDLGQKWKNQYPPRGFLDNLMESFAATNSCINPEEIQNWWLEKCLGMMEIVRKKIIDFY,not soluble
4,MVYSKTFRVEEKSITVSARGTIGVVFYRDFAYLPAVSLICFVPKEEFDIRFLFHALRAIKFKKQGSATGQLTVAQFKEYGIHVPSLKKQKEIAAILDPLYSFFTDLNEGLPAEIELRKKQLDYYQNFLFNWIQKQKELVEQASTN,soluble
5,MWEVIIMKTYIGKIHLKWCKNCNVPLLGRVCEVCGSKAEEVKLTPPGDPRLGFQYDMDFINKILEEEFGAKNVLNGKIILLNKIPGNEEAYEIIVDGEVKYLIYFDEDKEKWKVKLKLNGAKDLMEKGAYKKIIKIKNDVVEFLKNRKGSVLRPGIVEFTDDIEEKDDVIIVDENDRVVGVGLAVVSSEDIKNMEKGKVVKVRFFIKDNEDYKPGKIYDNLEEAFDLMVRANEGVIDNYERNAIGFIKNTYEKIKKPVMVAFSGGKDSLVTLILTLKALGKDIDVVFIDTGLEFEETLKNVEDVERHYGIKIIRLRGENFWEKVKEYGIPARDYRWCSEICKLEPLKKFIEENYEDDVLSFVGIRKYESFNRATKKRIHRNTYIKKQINALPIFHWSSLHVWIYLLREKAPYNKLYEKGFDRIGCFMCPAMEMGEMNKIKREFPKLWEKWENVLREYAEKHNLGEGWIKKGLWRWKHKRQ,soluble
6,MWITTTPWSKHSPNWVLADNGEKLIVPEIILGDAQGPTRNEWYIGLSSVLGFSFWSPDYDGVGTWLDAATQLNEQGGGDVITYSSGAHIVRTLLLAASQSNVHSTFTSKALGNDQTSSMTSSTTAVTVAKSGDGQQQTGEQKEEDWKDISKADLFKDDPYVLKNFGDSTTQAKMQSGGSTNSNGNGSQASLAFTKKALSLLKFLVDNKILKKDKVKEAIMNPDQYLSKRSKLDSNNQKPTKDDFIGSEFKDLYENAAKLNRFNSIWAEKDTDNAKFLITVVDSYFPVLPVPAAGLNETSPTLLKPWFQFRSAPSGNGTIRDYGFIPENK,soluble
7,MWKWEAENDAKGVVVIAHNILEHTGRYAYVITMLRRNGYHVIMGDLPGQGQTSRANKGQIENFQTYHESLLDWLKIANEYKIPTYVLGVGLGGLILLNLLEKVELPIEGMMLISPMLELQKNGKNRKDKLVSNIGKISKDTRFNVGVEPKDLTRNLEIVEETVNDGLMLKKATYHWYNTINETMKDTMAHIHDIQPMPTLLMYGTKDLIVDTRAIDEFKEKYQTPELYFKAWQGFYHEVHNEPERDEVMRYILTFLNNSVN,not soluble
8,MWLTKLVLNPASRAARRDLANPYEMHRTLSKAVSRALEEGRERLLWRLEPARGLEPPVVLVQTLTEPDWSVLDEGYAQVFPPKPFHPALKPGQRLRFRLRANPAKRLAATGKRVALKTPAEKVAWLERRLEEGGFRLLEGERGPWVQILQDTFLEVRRKKDGEEAGKLLQVQAVLFEGRLEVVDPERALATLRRGVGPGKALGLGLLSVAP,soluble
9,MWQAIAKQISEVTQQPFSISERESVNGGEINDCYMISNGSQRYFVKINEKAELPIFETEIESLTQLDKSDHIFVPSPIHIGTTKEHSFLVLNYLPTKSMDKDAFYELGVSLANHHLWGDQLEYGFDCDNYLGNVLQVNTWHRRWDCFFAEQRIGWQLQLLKEKGMVLGDIDTLVKNSKLILHNHQPKPALLHGDLWHGNIALSVKGPISYDPASYWGDAECDLAMVELFGGIQDSFFEGYESISSISEGFETRQHLYSLYHVLNHCNMFGGEYMFHAQQLIDKLNLNELEHHHHHH,not soluble
10,MWYTGTGDKGKTKVPSVGEVWKDSEIVKALGDLDELNSVLGVVSSLYPELSEVIQKLQNDIFSISSEIAGFDMNFSDEKVKGIEELITNYSKELEPLRNFVLPGGHIASSFLHLARAVCRRAERSVVTLLKESKAKEVHAKYLNRLSSLLFVLALVVNKRTNNPNVIWRGKD,soluble
11,MYELNICHLYPDLLNLYGDRGNIMALKMRCVWRGINVNVSNISIGDKFDAEAYDIIFLGGGQDYEQEIIQDDLLNQKGEEIRNAVKNDKVFLAICGGYQLLGSYYKTWDGKEIHFLNALDLWTIGGKERMIGNFVFECDFLKNDHYDGKIVGFENHSGRTYLGPGVKPLGKIIKGYGNNGEDGFEGAIYKNVYCSYSHGSLLPKNPALADHLISVALKQKYKDFVSLSGIDDEFENLAHDTTIKRIMG,soluble
12,MYETIVSSRGSSFFVSQGKTGEQVYRCQVNREQCPNTLPIDKHIDLVRKYIRAFLYRFAGMTSLNETSSRRMIFLVVPSFCVIEIIP,not soluble
13,MYKAVVFDFDGTVIDTEKHLFDLINTHLKIHQVAPISLEFYKQFIGGEATELHTYLEDAIGFKNKEKIYDQYYQTSVELPVNSTIIQLMQYLKKRHIPMAITTSSYKKNIYPIFKQLGLDTYIDVVVGRENVDSVQPNPEIYLKAVQELNYNPTTCLAIEDSVNGATAAMLAGLDVVVNTNIITKDQDFSTVQCVGQDMEFEDIKNSLFKE,not soluble
14,MYKDYPAAYQVSKGAALQVDTAFYERLRANAQQRTLVEQFEVPIRTGRAWKVKAGQVFRVTTPAGPQVGDFNVWNAHDPRERLWAARTRQLQGAHVSTHDRLWSNLPFLRPLVTITDDSLASYGIDEHGGRLHDLLGTRCDPYVKKMLTGEDFHHHCHSNLTRAVLPHGLTEFDVHDVLNIFQCTGLNHDDMYFMKACPAQKGDYLEFFAEIDLLCALSTCPGGDLSLPMWGPDAQDPLSVCRPLGVEIYNLDAALLEGWQSPERAAYNGLHGLQIAKVDWEKLEHHHHHH,not soluble
15,MYKVDSPDAVDFINHQEIIETLEYARTHRNDRELIRNLIEKARLCKGLTHREAAILLECAEEDLTKEIFHLAKEIKQKFYGNRIVMFAPLYLSNYCVNGCVYCPYHLKNKTIIRKKLTQEEICREVIALQDMGHKRLALEAGEDPVRNSIDYILESIRTIYSIHHKNGAIRRVNVNIAATTVENYRKLKDAGIGTYILFQETYHKENYEQLHPTGPKSNYAYHTEAMDRAMQGGIDDVGMGVLFGLNTYRYDFVGLLMHAEHLEAVYGVGPHTISVPRICSADDINAEDFENAISDEIFQKIVAVIRISVPYTGMIISTRESQKTREKVLDLGISQISGGSRTSVGGYAEAETPEENSAQFDVSDTRTLDEVVNWLLKLGYIPSFCTACYRAGRTGDRFMSLVKSGQIANCCSPNALITLQEYLEDYASEETKARGVAMIKQEMQHIPNPKIRERALENLKQIAAGERDFRF,not soluble
16,MYKVLRKERLTPKAVLLEVQDERAKLVKPGQYALVQANEESEPIPLSFLDVKESSYTFLVEVGGRATLEIAELVEEKIQFIEAPCGSPFPVKNYGKVLLISKNWGVAPLINIGRALKEESNEIYFVHVAEDEERVFLTKEASEISEEFLLFTEDGSLGEEGNSEWALGYFIENFGKPDLIVSAGSNLDSQMINRFAEERNIPHIAMVNAHILDANGLCLACRVLVEGQEKLACIDGPWFDASKVDWDYAIQKEAFYKEEEEKALKTFLRELQRLKARGR,not soluble
17,MYNISFTPDRPLTYHLEDDQSLARLSLVPGRGGLVTEWTVQGQPILYFDRERFQDPSLSVRGGIPILFPICGNLPQDQFNHAGKSYRLKQHGFARDLPWEVIGQQTQDNARLDLRLSHNDATLEAFPFAFELVFSYQLQGHSLRIEQRIANLGDQRMPFSLGFHPYFFCREKLGITLAIPANDYLDQKTGDCHGYDGQLNLTSPELDLAFTQISQPRAHFIDPDRNLKIEVSFSELYQTLVLWTVAGKDYLCLEPLEHHHHHH,not soluble
18,MYNVVSFNNEGVEHMKPTSEKSKEIRKKYKAPGASDEQLANSIKVASEFEYKNSSTFGWGGVYMVDRFQSMITGRAITNNTQKLLDAQALEEEASKANLKQ,not soluble
19,MYPDHMFKYVIIGDGGVGKSNLLLRFTDELFDPIHTTTLGVEFGYKDLQIDKYKVRLRVWDTCGQENFRSIIRAYYRNALGALLVYDITCRKSFVHLEQWLSDLRQHGHPEMVIMLIGNKSDLKAVRDVTTEEGEAFAKKNGLTFMETSAKANKHVEKAFVNTAHEIYKKLKLGVIEDDDVKKKKIGIILRSRSGKEKKCC,soluble
20,MYRSEVSKPQLENPNLVDRIIVIILPNYFYEYESVLKHITKENFGIIEKTVKHFKTEEVMEWKSADLESQDIWNLSDRLIDGPCMLLLCQRANAFIEMKEVAKYHNVIAKRMSSSDGIYYSKTTIAAYHDIIFFFPKYIDERAMLKHAKDYLSVEVWPKLSQGLARVAVERPDNPIKWLADYLHQLRQ,not soluble
21,MYSNVQPFINSDLTNCFQSQYTEIESLLFNLLDSPVKYTKHIGGTHHFKYSTEPILDILVGVENLHDITSLDEKRLNYVGFYRLHHKYTKKVMMAKFNNFHELKQQVRLHIIQMNTQTFESYLALDYLLSTNDDIALQFNTKKHQILQHSLTIRQYEMQKQQYFEKLCKKY,not soluble
22,MYTFDTTDHKSPCCNFQWYIFRKQGESRIITCELFGVIVSLENRWDWLEFMIDDSLQLTAFRCPKRDKLGMETLLQLGDVAQVTGNWKLSNGAFLNATKIAIHNNPDVECKYWLQQIQKYKSKVCELEIPSDWIRRQQRAHNLKTDAVLSFSAQVSTAAATCWKLWKKHFNQGGKISLQRLWEVIQRENCPKMQELSSCRRNQIVQLLIHLGYLIPLSKEPETYVLLIDDILDKQVMQIFNQNIASKTLSLREVAYRLEEYFHVEEISLERVEESILRLAYKEKVEQV,not soluble
